Measurements: US20160053248A1, “SYSTEMS AND METHODS FOR EVOLVING ENZYMES WITH DESIRED ACTIVITIES” (Potomac Affinity Proteins, LLC, priority 2009, published 2016)
Substitutions are numbered along the chain they refer to. Names and notes keep the numbering of the source. Primed or numbered codes have the meaning given here. No end group written: not given here. *: point of attachment. Dabcyl′ = CN(C)c1ccc(/N=N/c2ccc(C(=O)*)cc2)cc1

Columns and labels:
[1] = molecular target: SBT189; conditions: read-out: apparent KD for azide; anion binding to the enzyme-substrate complex
Excerpt: The acylation reaction: Step 2 describes conversion of the ternary complex into an acyl-enzyme with the concomitant release to the C-terminal portion of the substrate. With substrates used in phage display, the GB domain is released concomitantly with the acylation step. If a fluorescent reporter group is attached to subtilisin, a decrease in energy transfer enables time-dependent quantitation of acylation.

[2] = molecular target: SBT189-Dabcyl conjugate (Bacillus amyloliquefaciens (Bacillus velezensis)) (UniProt P00782); assay: single turn-over kinetics, quenching of GFP fluorescence by Dabcyl; 0.1M KPO4, pH 7.2, 5 mM azide, 22° C
[3] = test system: GA-PFRAL-S-GB
[4] = test system: SBT189; assay: Transient state kinetics with FRET peptide: product release and product binding; design: species or system Bacillus amyloliquefaciens; conditions: not influenced by azide concentration
Procedure: The deacylation reaction and product release: A self-quenched FRET peptide that becomes highly fluorescent when cleaved (Dabcyl-EEDKLFRAL-SATE(EDANS)G (SEQ ID NO:16)) was synthesized. This peptide has been used to determine transient state kinetic parameters. Deacylation of SBT189 in 50 mM azide is faster (3.3 s^−1) than the wild type counterpart (1.8 s^−1). The rate of product (Dabcyl-EEDKLFRAL; (SEQ ID NO:17)) release is 6 s^−1 and Kp is 1.2 μM. Product binding is not influenced by azide concentration. Strong product binding of subtilisin-phage to GA-PCOGNATE- is used for the collection of active mutants in the release step in phage selection (see FIG. 5). Binding is constitutive at this step, however, and is not used to increase selectivity.

[5] = molecular target: T1, subtilisin variant SBT189 (Bacillus amyloliquefaciens (Bacillus …, UniProt P00782 108-382)); assay: complex formed at 100 µM for the activation cascade
T1 construct: Engineered subtilisin BPN' variant with D32A; also called S189; RSUB1
T1 chain: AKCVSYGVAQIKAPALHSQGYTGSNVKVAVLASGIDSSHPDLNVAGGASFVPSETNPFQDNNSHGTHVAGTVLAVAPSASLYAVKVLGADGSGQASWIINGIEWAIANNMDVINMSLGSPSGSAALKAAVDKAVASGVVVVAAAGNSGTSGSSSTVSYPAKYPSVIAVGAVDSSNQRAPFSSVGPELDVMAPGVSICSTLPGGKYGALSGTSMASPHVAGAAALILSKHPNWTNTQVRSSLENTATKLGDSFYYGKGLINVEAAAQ
Procedure: (§1) To do this complexes of SBT189 were formed with two different prodomain inhibitors. The first complex contained 100 μM of SBT189 and prodomain variant pS156, and the second complex contained 100 μM SBT189 and prodomain variant pS170. To start the activation cascade, 10 nM wild type subtilisin was added to each complex. Wild type subtilisin is able to cleave both the loop sequence MSTM (SEQ ID NO:23) in pS156 and the loop sequence YKTM (SEQ ID NO:22) in pS170. After 5 minutes of digestion, the wild type subtilisin was inactivated by the addition of EDTA to 1 mM and heating to 55° C. for 10 minutes. Azide was then added to the reactions to 10 mM and the activity of free SBT189 subtilisin was then measured as a function of time. The release of free SBT189 from the pS156 complex occurs at a rate of about 1 days⁻¹. This is because the cleavage of the loop sequence MSTM (SEQ ID NO:23) by SBT189 is very slow. In contrast, the complete activation of SBT189 from the pS170 complex occurs within 10 minutes. Because SBT189 can readily cleave the loop sequence YKTL (SEQ ID NO:24), SBT189 is rapidly released after the self-activating chain reaction is initiated by wild type subtilisin. Thus the protease signal from the pS170 complex increases about 10⁴-fold in 10 minutes (from 10 nM to 100 μM).

[6] = test system: SBT189; assay: Activation cascade: release of free SBT189 from prodomain inhibitor complexes; type: biochemical, Bacillus amyloliquefaciens
Procedure: as §1, with “days^−1.” for “days⁻¹.”, “10^4-fold” for “10⁴-fold”

[7] = molecular target: T2, prodomain variant pS170
T2 chain: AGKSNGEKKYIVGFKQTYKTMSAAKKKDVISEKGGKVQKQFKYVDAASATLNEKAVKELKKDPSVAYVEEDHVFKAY

[8] = molecular target: T3, prodomain variant pS156
T3 chain: T2 chain with Y18M, K19S

[9] = molecular target: GB-GFP fusion protein with cognate variation LFQSL-SA, P06654
[10] = molecular target: GB-LFRAL-SA-GFP, P06654
[11] = molecular target: GB-GFP fusion protein with cognate variation VFKAM-SG, P06654
[12] = molecular target: GB-GFP fusion protein with cognate variation LLRAL-SA, P06654
[13] = molecular target: GB-GFP fusion protein with cognate variation LFRAL-MA, P06654
[14] = molecular target: GB-GFP fusion protein with cognate variation LFRAY-SA, P06654
[15] = molecular target: GB-GFP fusion protein with cognate variation LFRAM-SA, P06654
[16] = molecular target: GB-GFP fusion protein with cognate variation LYRAL-SA, P06654
[17] = molecular target: GA-PFRAL-S-GB; remark: listed apart in the source
[18] = molecular target: T1, subtilisin variant SBT189; assay: transient state kinetics with the FRET peptide
[19] = 100 μM complex, started with 10 nM wild type subtilisin, 10 mM azide

[N-]=[N+]=[N-] [azide]
Kd [1]: 50 mM

GB-GFP fusion protein with cognate variation LYRAL-SA (from UniProt P06654 228-282)
KS [2]: 88 µM

GB-LFRAL-SA-GFP (from UniProt P06654 228-282)
KS [2]: 16 µM

GB-GFP fusion protein with cognate variation VFKAM-SG (from UniProt P06654 228-282)
KS [2]: 43 µM

GB-GFP fusion protein with cognate variation LFRAL-MA (from UniProt P06654 228-282)
KS [2]: 24 µM

subtilisin synthesized as a fusion protein on the surface of M13 phage
enrichment of phagemid relative to helper phage after one round of catch and release selection [3]: 350 fold enrichment

GB-GFP fusion protein with cognate variation LFQSL-SA (from UniProt P06654 228-282)
KS [2]: 66 µM

GB-GFP fusion protein with cognate variation LFRAM-SA (from UniProt P06654 228-282)
KS [2]: 36 µM

Dabcyl-EEDKLFRAL ({Dabcyl′}-EEDKLFRAL)
rate of product release [4]: 6 s⁻¹

GB-GFP fusion protein with cognate variation LFRAY-SA (from UniProt P06654 228-282)
KS [2]: 1900 µM

GB-GFP fusion protein with cognate variation LLRAL-SA (from UniProt P06654 228-282)
KS [2]: 670 µM

B1: prodomain variant pS170 (other)
chain: T2 chain
notes: M18Y, S19K, A74F, H75K against the prodomain; also called p5170
binding result [5]: binds
time to complete activation of SBT189 from the complex [6, 19]: ≤ 10 min
increase of protease signal ([6]; in 10 minutes (from 10 nM to 100 μM)): about 10^4 fold

B2: pS156 (protein)
chain: T2 chain with Y18M, K19S
rate of release of free SBT189 from the complex [6, 19]: about 1 days^−1

B3: wild type subtilisin (protein)
chain: AQSVPYGVSQIKAPALHSQGYTGSNVKVAVIDSGIDSSHPDLKVAGGASMVPSETNPFQDNNSHGTHVAGTVAALNNSIGVLGVAPSASLYAVKVLGADGSGQYSWIINGIEWAIANNMDVINMSLGGPSGSAALKAAVDKAVASGVVVVAAAGNEGTSGSSSTVGYPGKYPSVIAVGAVDSSNQRASFSSVGPELDVMAPGVSIQSTLPGNKYGAYNGTSMASPHVAGAAALILSKHPNWTNTQVRSSLENTTTKLGDSFYYGKGLINVQAAAQ
cleavage of the prodomain loop [7]: able to cleave
cleavage of the prodomain loop [8]: able to cleave

B4: SBT189-Dabcyl conjugate (protein)
chain: T1 chain
Relative k2/KS [9]: 0.04
acylation rate (k2) [9]: 0.23 s⁻¹
Relative k2/KS [10]: 1
activity against the cognate sequence, relative to VFKAM-SG [10]: 250-times greater
acylation rate (k2) [10]: 1.4 s⁻¹
Relative k2/KS [11]: 0.004
acylation rate (k2) [11]: 0.017 s⁻¹
Relative k2/KS [12]: 0.01
acylation rate (k2) [12]: 0.59 s⁻¹
Relative k2/KS [13]: 0.027
acylation rate (k2) [13]: 0.06 s⁻¹
Relative k2/KS [14]: 0.001
acylation rate (k2) [14]: 0.17 s⁻¹
Relative k2/KS [15]: 0.32
acylation rate (k2) [15]: 1 s⁻¹
Relative k2/KS [16]: 0.03
acylation rate (k2) [16]: 0.23 s⁻¹

B5: subtilisin variant SBT189 (protein)
chain: T1 chain
digestion of the fusion protein, protein gel and MALDI-MS [10]: The fusion protein was correctly and specifically processed to release GB-LFRAL and SA-GFP
complete activation of SBT189 from the complex [7]: occurs within 10 minutes
increase of the protease signal from the complex [7]: increases about 10^4-fold in 10 minutes (from 10 nM to 100 µM)
cleavage rate in the absence of azide [17]: 0.12 min⁻¹
release of free SBT189 from the complex [8]: about 1 days^-1

B6: RSUB1(AF350) (protein)
chain: T1 chain
rate of GB release in saturating azide [17]: 6.4 s⁻¹
rate of GB release with no azide present [17]: 0.0019 s⁻¹

B7: Dabcyl-EEDKLFRAL (peptide)
peptide: {Dabcyl′}-EEDKLFRAL
notes: Acyl-side cleavage product of the FRET peptide; also called product
koff [18]: 6 s⁻¹
